Sequences and labels used below:
B1: WSB1 (parent)
chain: FSHDGLHVASLADDKMVRFWRIDE
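Further: lentivirally expressed fusions sorted by FACS into six bins by GFP to DsRed ratio, PSI derived from sequencing read proportions per bin multiplied by bin number.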

This data set covers variants of B1. Put plainly: protein stability index of a GFP-peptide fusion (GPS, HEK-293T) (PSI 1-6); higher = more stable. The following applies: c terminus: a fixed tail appended.
Turning to FSHDGLHVASLADDKMVRFWRIVE, the protein stability index came out at 1.81.

For the variant FSHDGLHVASLADDKMVRFWRIME, the protein stability index came to 1.73.

With FSHDGLHVASLADDKMVRFWRIHE, the protein stability index worked out at 1.85.

As to FSHDGLHVASLADDKMVRFWRIGE, the protein stability index was determined as 2.25.

On to FSHDGLHVASLADDKMVRFWRILE, for which the protein stability index was 2.35.

For the variant FSHDGLHVASLADDKMVRFWRINE, the protein stability index turned out to be 1.8.

In the case of FSHDGLHVASLADDKMVRFWRITE, the protein stability index worked out at 1.33.

For FSHDGLHVASLADDKMVRSWRIDE, the protein stability index stood at 2.42.

For the variant FSHDGLHVASLADDKMVRQWRIDE, the protein stability index amounted to 2.03.

As for FSHDGLHVASLADDKMVRAWRIDE, the protein stability index was 2.27.

On to FSHDGLHVASLADDKMVRHWRIDE, for which the protein stability index was found to be 2.66.

Take FSHDGLHVASLADDKMVRNWRIDE: the protein stability index stood at 2.62.

For FSHDGLHVASLADDKMVRIWRIDE, the protein stability index came to 1.49.

FIHDGLHVASLADDKMVRFWRIDE: the protein stability index was found to be 2.46.

With FFHDGLHVASLADDKMVRFWRIDE, the protein stability index is 1.97.

As to FPHDGLHVASLADDKMVRFWRIDE, the protein stability index stood at 1.69.

FLHDGLHVASLADDKMVRFWRIDE: the protein stability index came out at 1.58.

Take FMHDGLHVASLADDKMVRFWRIDE: the protein stability index is 3.12.

On to FNHDGLHVASLADDKMVRFWRIDE, for which the protein stability index was 2.78.

Turning to FSHDGLHVMSLADDKMVRFWRIDE, the protein stability index amounted to 1.79.

For FSHDGLHVPSLADDKMVRFWRIDE, the protein stability index turned out to be 1.76.

FSHDGLHVISLADDKMVRFWRIDE: the protein stability index was 2.66.

As for FSHDGLHVWSLADDKMVRFWRIDE, the protein stability index worked out at 2.44.

FSHDGLHVQSLADDKMVRFWRIDE: the protein stability index stood at 1.89.

Turning to FSHDGLHVESLADDKMVRFWRIDE, the protein stability index was found to be 2.01.

As for FSHDGLHVCSLADDKMVRFWRIDE, the protein stability index worked out at 2.51.

As for FSHDELHVASLADDKMVRFWRIDE, the protein stability index was 2.67.

Regarding FSHDNLHVASLADDKMVRFWRIDE, the protein stability index came out at 3.01.

In the case of FSHDQLHVASLADDKMVRFWRIDE, the protein stability index amounted to 2.15.

With FSHDILHVASLADDKMVRFWRIDE, the protein stability index turned out to be 1.89.

For the variant FSHDYLHVASLADDKMVRFWRIDE, the protein stability index was 1.27.

FSHDTLHVASLADDKMVRFWRIDE: the protein stability index stood at 2.27.

Turning to FSHDRLHVASLADDKMVRFWRIDE, the protein stability index came to 2.07.

For the variant FSHDGFHVASLADDKMVRFWRIDE, the protein stability index came out at 2.43.

As for FSHDGRHVASLADDKMVRFWRIDE, the protein stability index was 1.92.

As for FSHDGIHVASLADDKMVRFWRIDE, the protein stability index came out at 2.15.

For the variant FSHDGCHVASLADDKMVRFWRIDE, the protein stability index was 1.55.

As for FSHDGAHVASLADDKMVRFWRIDE, the protein stability index came to 1.98.

In the case of FSHDGQHVASLADDKMVRFWRIDE, the protein stability index was found to be 2.33.

In the case of FSHDGDHVASLADDKMVRFWRIDE, the protein stability index turned out to be 2.07.

Regarding FSHDGLHVASLADDKMVSFWRIDE, the protein stability index came out at 1.31.

For FSHDGLHVASLADDKMVCFWRIDE, the protein stability index turned out to be 1.43.

Turning to FSHDGLHVASLADDKMVLFWRIDE, the protein stability index was found to be 1.32.

For FSHDGLHVASLADDKMVEFWRIDE, the protein stability index was 1.92.

With FSHDGLHVASLADDKMVYFWRIDE, the protein stability index came to 1.89.

FSHDGLHVASLADDKMVIFWRIDE: the protein stability index worked out at 2.23.

In the case of FSHDGLHVASLADDKMVTFWRIDE, the protein stability index was found to be 1.08.

Regarding FSHDGLHVASLADDKMVKFWRIDE, the protein stability index is 2.12.

With FSHDGLHVASLADDKMVAFWRIDE, the protein stability index worked out at 1.41.

Regarding FSHDGLHVASNADDKMVRFWRIDE, the protein stability index was found to be 1.78.

FSHDGLHVASKADDKMVRFWRIDE: the protein stability index amounted to 2.24.

On to FSHDGLHVASGADDKMVRFWRIDE, for which the protein stability index turned out to be 1.71.

FSHDGLHVASYADDKMVRFWRIDE: the protein stability index came to 1.3.

As for FSHDGLHVASEADDKMVRFWRIDE, the protein stability index is 1.65.

Turning to FSHDGLHVASFADDKMVRFWRIDE, the protein stability index turned out to be 2.5.

Turning to FSHDGLHVASHADDKMVRFWRIDE, the protein stability index was 2.98.

In the case of FSHDGLHVASDADDKMVRFWRIDE, the protein stability index is 2.06.

Turning to FSHDGLHVASMADDKMVRFWRIDE, the protein stability index is 1.69.

As to FSHDGLHVASQADDKMVRFWRIDE, the protein stability index worked out at 1.67.

Consider FSHDGLHVASLADDKMSRFWRIDE, for which the protein stability index was 1.54.

Regarding FSHDGLHVASLADDKMCRFWRIDE, the protein stability index amounted to 3.55.

On to FSHDGLHVASLADDKMHRFWRIDE, for which the protein stability index is 1.51.

As for FSHDGLHVASLADDKMNRFWRIDE, the protein stability index came out at 1.5.

For the variant FSHDGLHVASLADDKMIRFWRIDE, the protein stability index was determined as 2.42.

On to FSHDGLHVASLADDKMKRFWRIDE, for which the protein stability index was determined as 1.85.

For FSHDGLHVASLADDKMMRFWRIDE, the protein stability index worked out at 1.79.

Turning to FSHDGLHVASLADDKMRRFWRIDE, the protein stability index amounted to 2.03.

Turning to FSHDGLHVASLADDKMPRFWRIDE, the protein stability index amounted to 2.42.

As for SSHDGLHVASLADDKMVRFWRIDE, the protein stability index amounted to 3.33.

YSHDGLHVASLADDKMVRFWRIDE: the protein stability index worked out at 2.49.

Turning to ESHDGLHVASLADDKMVRFWRIDE, the protein stability index stood at 4.03.

Take CSHDGLHVASLADDKMVRFWRIDE: the protein stability index came to 2.99.

On to WSHDGLHVASLADDKMVRFWRIDE, for which the protein stability index amounted to 2.3.

As for DSHDGLHVASLADDKMVRFWRIDE, the protein stability index is 4.46.

As for LSHDGLHVASLADDKMVRFWRIDE, the protein stability index came to 3.14.

Take KSHDGLHVASLADDKMVRFWRIDE: the protein stability index turned out to be 3.4.

TSHDGLHVASLADDKMVRFWRIDE: the protein stability index came to 3.73.

FSHDGLHVASLADDKMVRFWRIDT: the protein stability index amounted to 1.62.

For FSHDGLHVASLADDKMVRFWRIDN, the protein stability index was determined as 3.

Turning to FSHDGLHVASLADDKMVRFWRIDF, the protein stability index was found to be 2.68.

For the variant FSHDGLHVASLADDKMVRFWRIDH, the protein stability index is 1.16.

Regarding FSHDGLHVASLADDKMVRFWRIDS, the protein stability index was found to be 1.61.

Consider FSHDGLHVASLADDKMVRFWRIDI, for which the protein stability index was found to be 2.28.

Consider FSHDGLHVASLADDKMVRFWRIDA, for which the protein stability index was 3.01.

Regarding FSHDGLHVASLADDKMVRFWRIDC, the protein stability index is 4.37.

Turning to FSHDGLHVASLADDKMVRFWRIDW, the protein stability index was determined as 2.56.

On to FSHDGLHVASLADDKMVRFWRIDK, for which the protein stability index stood at 1.84.

Consider FSHDGLHVASLADDKMVRFWRTDE, for which the protein stability index came out at 1.65.

As for FSHDGLHVASLADDKMVRFWRWDE, the protein stability index was found to be 1.77.

As to FSHDGLHVASLADDKMVRFWRFDE, the protein stability index stood at 1.63.

For the variant FSHDGLHVASLADDKMVRFWRQDE, the protein stability index was 2.45.

With FSHDGLHVASLADDKMVRFWRGDE, the protein stability index is 3.54.

Turning to FSHDGLHVASLADDKMVRFWRHDE, the protein stability index was determined as 2.31.

Take FSHDGLHVASLADDKMVRFWREDE: the protein stability index amounted to 2.54.
